Source: PMC7610980

Target: bat RaTG13 spike (S) glycoprotein ectodomain (bat coronavirus RaTG13)
Test: BLI

Sequence of human ACE2 ectodomain (residues 19-615) (Q9BYF1 19-615): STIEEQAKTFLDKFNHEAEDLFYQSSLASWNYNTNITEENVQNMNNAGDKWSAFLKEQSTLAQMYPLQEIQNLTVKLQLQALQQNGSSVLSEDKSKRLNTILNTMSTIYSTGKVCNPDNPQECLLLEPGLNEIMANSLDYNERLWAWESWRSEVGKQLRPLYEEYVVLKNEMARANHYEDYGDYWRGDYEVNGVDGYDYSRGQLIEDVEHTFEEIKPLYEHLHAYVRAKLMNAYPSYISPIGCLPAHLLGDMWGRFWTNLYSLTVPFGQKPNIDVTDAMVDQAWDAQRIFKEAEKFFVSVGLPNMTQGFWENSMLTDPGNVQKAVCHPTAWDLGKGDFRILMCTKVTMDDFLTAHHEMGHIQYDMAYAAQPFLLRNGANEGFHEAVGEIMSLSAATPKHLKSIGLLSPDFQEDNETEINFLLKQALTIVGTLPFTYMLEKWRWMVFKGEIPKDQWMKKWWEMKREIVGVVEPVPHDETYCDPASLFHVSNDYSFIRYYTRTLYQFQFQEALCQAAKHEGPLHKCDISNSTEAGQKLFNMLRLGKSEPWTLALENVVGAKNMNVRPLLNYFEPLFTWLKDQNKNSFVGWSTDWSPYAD

## human ACE2 ectodomain (residues 19-615) (from UniProt Q9BYF1-1 19-615) (receptor)
  Kd: > 40 µM
